Earlier results, collected in patent publication US20190382462A1, “METHODS AND COMPOSITIONS FOR TREATING HPA HYPERACTIVITY” (priority 2017, published 2019).
Where two headings read alike, the source gives them in different places. Where no end group is shown, it is not given here.

Experiments:
[1] = human serum
[2] = target: T1, CRF-BP (Homo sapiens, UniProt P24387)
T1 sequence (P24387 25-322): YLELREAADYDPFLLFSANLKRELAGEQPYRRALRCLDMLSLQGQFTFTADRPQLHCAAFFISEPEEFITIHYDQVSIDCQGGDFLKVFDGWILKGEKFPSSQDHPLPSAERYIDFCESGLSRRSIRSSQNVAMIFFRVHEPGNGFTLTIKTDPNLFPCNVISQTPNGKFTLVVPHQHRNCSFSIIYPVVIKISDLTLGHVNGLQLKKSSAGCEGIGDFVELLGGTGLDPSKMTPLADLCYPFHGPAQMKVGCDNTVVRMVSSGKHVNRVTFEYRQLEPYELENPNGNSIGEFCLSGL

[3] = target: T2, CRF1 (Homo sapiens, UniProt P34998)
T2 sequence (P34998 24-415): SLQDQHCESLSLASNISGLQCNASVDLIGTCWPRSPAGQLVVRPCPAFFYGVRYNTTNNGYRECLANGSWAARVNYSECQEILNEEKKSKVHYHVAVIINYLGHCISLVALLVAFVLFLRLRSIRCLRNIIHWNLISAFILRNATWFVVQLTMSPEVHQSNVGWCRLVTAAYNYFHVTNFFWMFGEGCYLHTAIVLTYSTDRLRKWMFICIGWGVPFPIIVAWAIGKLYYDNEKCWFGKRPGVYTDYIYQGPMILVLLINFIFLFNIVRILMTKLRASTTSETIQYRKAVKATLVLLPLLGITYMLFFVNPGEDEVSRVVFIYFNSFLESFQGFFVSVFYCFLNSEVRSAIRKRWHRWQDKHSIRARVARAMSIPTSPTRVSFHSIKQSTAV

etanercept
half-life (b287, b290): roughly 70 hours

Human transferrin: highly abundant serum glycoprotein that carries iron
half-life [1]: 170 to 288 h

Ucn2: CRF-related peptide, selective CRF2 agonist (IVLSLDVPIGLLQILLEQARARAAREQATTNARILARVGHC; ends and bridges not checked; UniProt Q96RP3 72-112, looked up)
affinity for CRF-BP [2]: neither Ucn2 nor Ucn3 exhibits appreciable affinity

aglycosylated form of human transferrin: aglycosylated form, about 2-8% of the total transferrin pool
half-life [1]: 336 to 408 h

darbepoetin alfa
serum half-life compared to epoetin alpha and epoetin beta (in vivo): 3 fold

Ucn3: CRF-related peptide, selective CRF2 agonist (FTLSLDVPTNIMNLLFNIAKAKNLRAQAAANAHLMAQI; ends and bridges not checked; UniProt Q969E3 120-157, looked up)
affinity for CRF-BP [2]: neither Ucn2 nor Ucn3 exhibits appreciable affinity

bevacizumab: therapeutic antibody
circulating serum concentration reported for therapeutic antibody (in vivo): 10 to 30 µg/mL

urocortin 1 (DNPSLSIDLTFHLLRTLLELARTQSQRERAEQNRIIFDSV; ends and bridges not checked; UniProt P55089 83-122, looked up) [Ucn1]
binding affinity for CRF1 relative to CRF [3]: threefold higher

Factor IX: other formulations of Factor IX alone
half-life (b170, Alprolix: terminal half-life in clinical trials): ~18 h
